The source of these data is US8624010 (Amgen, dated 2014).

The labels stand for the following.
B1: murine B7RP1 (B7 related protein-1), membrane-bound (ligand)
chain: ETEVGAMVGSNVVLSCIDPHRRHFNLSGLYVYWQIENPEVSVTYYLPYKSPGINVDSSYKNRGHLSLDSMKQGNFSLYLKNVTPQDTQEFTCRVFMNTATELVKILEEVVRLRVAANFSTPVISTSDSSNPGQERTYTCMSKNGYPEPNLYWINTTDNSLIDTALQNNTVYLNKLGLYDVISTLRLPWTSRGDVLCCVENVALHQNITSISQAESFTGNNTKNPQETHNNELKVLVPVLAVLAAAAFVSFIIYRRTRPHRSYTGPKTVQLELTDHA
notes: also called mB7RP1; ligand for CRP1
B3: B7.2 (ligand)
chain: VSVETQAYFNGTAYLPCPFTKAQNISLSELVVFWQDQQKLVLYEHYLGTEKLDSVNAKYLGRTSFDRNNWTLRLHNVQIKDMGSYDCFIQKKPPTGSIILQQTLTELSVIANFSEPEIKLAQNVTGNSGINLTCTSKQGHPKPKKMYFLITNSTNEYGDNMQISQDNVTELFSISNSLSLSFPDGVWHMTVVCVLETESMKISSKPLNFTQEFPSPQTYWK
notes: also called CD86; B7.2-Fc; not shown: The Fc part (detected with anti-human Fc) and any linker

Experiment [1] deals with T1, murine CRP1-Fc fusion protein (murine; human, UniProt P01857-1 96-330 = IgG part).
T1 construct: domain: carboxy terminal 235 amino acids of the human Fc gene (isotype IgG1); Made in 293T cells and purified on Protein A. The construct encodes residues 1-147; also called mCRP1-Fc
The experiment can be described thus: flow cytometry on non-activated mouse splenocytes, double stain with CD45R-PE; detection with goat anti-human Fc-FITC; ligand on the cells is presumably B7RP1. As to the method:
PE conjugated cell marker antibody to CD45R (CD45R is a B-cell marker) or isotype control antibody (rat isotype), or PBS (no stain), were added as indicated at the left side of each individual panel.
Activated spleen cells for immunostaining were washed in PBS, 0.5% BSA (Path-ocyte 4, ICN Pharmaceuticals) wash buffer, resuspended, and then aliquoted in 100 µl volumes. 15 µg/ml of either the CRP1-Fc fusion protein or the B7RP1-Fc fusion protein was added (1.5 µg/sample) as appropriate, and then the mixtures were incubated on ice for 30 min with occasional mixing. The cells were washed twice in 5.0 ml of wash buffer. Binding of the fusion proteins was visualized with 2 µg of goat-anti-human (GaHuFc-FITC) conjugated secondary antibody in a 100 µl volume for cell staining. Cell marker antibodies conjugated with PE were added with the GaHUFc-FITC, as well as control isotype-PE conjugated antibody controls where indicated (rat isotype). […]
The CRP1-Fc fusion protein was utilized to detect cells that expressed ligands to CRP1, presumably including the B7RP1 protein (see Example 8), by FACS analysis (FIG. 7). Splenocytes were prepared as in Example 8, except the 12 hr T-cell activation step was omitted and the cells were directly analyzed. […] Cells were detected that expressed both the CD45R B-cell marker and the putative ligands for CRP1, presumably including B7RP1 (Example 8).
A general note: Flow cytometry measures light scatter and fluorescence of single cells or particles in a stream.

The experiment “B7.2” concerns the target B3. The experiment can be described thus: ACAS cell surface display assay, Fc fusion protein on transfected cells, FITC anti-human Fc detection. As to the method:
(§1) Figure 5: FIG. 5. Interaction of CRP1-Fc and B7RP1-Fc fusion proteins with membrane-bound proteins expressed in COS-7 cells. COS-7 cells transiently transfected with pcDNA3/CRP1, pcDNA3/B7RP1, or pcDNA3 vector alone. CHO D-cells were transfected with psDRα/hCD28 and stably expressed human CD28 (hCD28). Cells expressing membrane-bound CRP1, B7RP1, or hCD28, are represented in rows as indicated at the left side of the panel. Fc fusion proteins were incubated with the plate-bound cells in columns as indicated at the top of the panel. After incubation, cells were washed, and bound Fc fusion proteins were detected using an anti-human Fc antibody and ACAS (Adherent Cell Analysis and Sorting; ACAS Ultima, Meridian Instruments, Inc., Okemos, Mich.) analysis. Figure 6A: FIG. 6. FACS (Fluorescence-Activated Cell Sorter) analysis of expression of the receptor for B7RP1 (putatively, CRP1) on activated CD4+ and CD8+ T-cells. Mouse splenocytes were activated with PMA and ionomycin for 12 hours. B7RP1-Fc fusion protein, control Fc protein (Mock-Fc), or PBS (no stain), were incubated with the cells, washed, and subsequently incubated with goat-anti-human Fc-FITC conjugated antibody(GaHuFc-FITC) as indicated at the bottom of each panel. […]

For experiment [2], the target named is T2, murine B7RP1-Fc fusion protein (murine; human, UniProt P01857-1 96-330 = IgG part).
T2 construct: domain: carboxy terminal 235 amino acids of the human Fc gene (isotype IgG1); Made in 293T cells and purified on Protein A. The construct encodes residues 1-269; also called mB7RP1-Fc; muB7RP1-Fc
Nature of the experiment: flow cytometry on PMA/ionomycin-activated mouse splenocytes, lymphocyte gate; detection with goat anti-human Fc-FITC; no PE stain; receptor on the cells is putatively CRP1. The protocol:
The B7RP1-Fc fusion protein was utilized to detect cells that expressed receptors to B7RP1, presumably including the CRP1 protein (see Example 6), by FACS analysis. Spleens were removed from female C57/Black 6 mice, ground on 100 micron mesh filters to release the lymphocytes, passed through 70 micron filters, and then washed in 50 ml of RPMI-1640. They were pelleted at 1500 rpm, resuspended in fresh RPMI, mixed to break up the clumping cells, and passed through a 40 micron filter. T-cells to be activated were seeded into 6 well plates in RPMI-1640, 5% FBS, 1×PSG, PMA, ionomycin, and incubated at 37° C., 5% CO2 overnight. T-cell activation was checked by visual confirmation after 12 hr.
Activated spleen cells for immunostaining were washed in PBS, 0.5% BSA (Path-ocyte 4, ICN Pharmaceuticals) wash buffer, resuspended, and then aliquoted in 100 µl volumes. 15 µg/ml of either the CRP1-Fc fusion protein or the B7RP1-Fc fusion protein was added (1.5 µg/sample) as appropriate, and then the mixtures were incubated on ice for 30 min with occasional mixing. The cells were washed twice in 5.0 ml of wash buffer. Binding of the fusion proteins was visualized with 2 µg of goat-anti-human (GaHuFc-FITC) conjugated secondary antibody in a 100 µl volume for cell staining. […]

The target of experiment [3] is B1. The experiment can be described thus: ACAS cell surface display assay, Fc fusion protein on transfected cells, FITC anti-human Fc detection. The protocol: as §1

For the molecule B1, the binding result in experiment [1] is on record as “binds”.

B2: murine CRP1 (CD28 related protein-1), membrane-bound (receptor)
chain: EINGSADHRMFSFHNGGVQISCKYPETVQQLKMRLFREREVLCELTKTKGSGNAVSIKNPMLCLYHLSNNSVSFFLNNPDSSQGSYYFCSLSIFDPPPFQERNLSGGYLHIYESQLCCQLKLWLPVGCAAFVVVLLFGCILIIWFSKKKYGSSVHDPNSEYMFMAAVNTNKKSRLAGVTS
notes: also called mCRP1; receptor for B7RP1
Regarding B2, the binding result is given as “no binding” in the experiment with B7.2 and “binds” in experiment [2].
With B3, the binding result in experiment [3] is recorded as “no binding”.
